In publication PMC7380067:
Residue numbers refer to the chain shown, from its start.

Columns and labels:
[1] = target: T1, AgrR-His6 (Cupriavidus metallidurans NA4) (UniProt Q1LMJ6); assay: EMSA; settings: 25 mM Na2HPO4, 150 mM NaCl, 0.1 mM EDTA, 2 mM MgCl2, 1 mM DTT, 10% glycerol, pH 7.0, 22 C, about 0.1 nM probe, 25 ug/ml sonicated salmon sperm DNA
T1 sequence: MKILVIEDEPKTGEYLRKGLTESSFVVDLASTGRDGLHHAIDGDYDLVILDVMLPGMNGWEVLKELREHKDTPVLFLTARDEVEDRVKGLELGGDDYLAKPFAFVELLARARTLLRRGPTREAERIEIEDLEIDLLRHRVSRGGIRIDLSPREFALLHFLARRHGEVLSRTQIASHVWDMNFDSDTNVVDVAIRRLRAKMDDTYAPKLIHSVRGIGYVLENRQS

[2] = target: T1, AgrR-His6 (Cupriavidus metallidurans NA4); assay: in gel (OP)2-Cu+ footprinting; settings: 25 mM Na2HPO4, 150 mM NaCl, 0.1 mM EDTA, 2 mM MgCl2, 1 mM DTT, 10% glycerol, pH 7.0, 22 C, about 0.1 nM probe, 25 ug/ml sonicated salmon sperm DNA
[3] = target: T2, MBP-AgrR D51A D51A (Cupriavidus metallidurans NA4) (UniProt Q1LMJ6); assay: DNase I footprinting; settings: 25 mM Na2HPO4, 150 mM NaCl, 0.1 mM EDTA, 2 mM MgCl2, 1 mM DTT, 10% glycerol, pH 7.0, 22 C, about 0.1 nM probe, 25 ug/ml sonicated salmon sperm DNA
T2 sequence: T1 sequence with D51A

[4] = target: T1, AgrR-His6 (Cupriavidus metallidurans NA4); assay: DNase I footprinting; settings: 25 mM Na2HPO4, 150 mM NaCl, 0.1 mM EDTA, 2 mM MgCl2, 1 mM DTT, 10% glycerol, pH 7.0, 22 C, about 0.1 nM probe, 25 ug/ml sonicated salmon sperm DNA
[5] = target: T2, MBP-AgrR D51A D51A (Cupriavidus metallidurans NA4); assay: premodification binding interference (depurination, depyrimidination, DMS methylation); settings: 25 mM Na2HPO4, 150 mM NaCl, 0.1 mM EDTA, 2 mM MgCl2, 1 mM DTT, 10% glycerol, pH 7.0, 22 C, about 0.1 nM probe, 25 ug/ml sonicated salmon sperm DNA
[6] = target: T2, MBP-AgrR D51A D51A (Cupriavidus metallidurans NA4); assay: EMSA; settings: 25 mM Na2HPO4, 150 mM NaCl, 0.1 mM EDTA, 2 mM MgCl2, 1 mM DTT, 10% glycerol, pH 7.0, 22 C, about 0.1 nM probe, 25 ug/ml sonicated salmon sperm DNA
[7] = target: T3, MBP-AgrR D51E D51E (Cupriavidus metallidurans NA4) (UniProt Q1LMJ6); assay: EMSA; settings: 25 mM Na2HPO4, 150 mM NaCl, 0.1 mM EDTA, 2 mM MgCl2, 1 mM DTT, 10% glycerol, pH 7.0, 22 C, about 0.1 nM probe, 25 ug/ml sonicated salmon sperm DNA
T3 sequence: T1 sequence with D51E

[8] = system: MBP-AgrR D51A (Cupriavidus metallidurans NA4); assay: EMSA; settings: 25 ug/ml salmon sperm DNA; 25 mM Na2HPO4, 150 mM NaCl, 0.1 mM EDTA, 2 mM MgCl2, 1 mM DTT, 10% glycerol, pH 7.0, 22 C, about 0.1 nM probe, 25 ug/ml sonicated salmon sperm DNA
[9] = system: AgrR-His6 (Cupriavidus metallidurans NA4); assay: EMSA; settings: 25 ug/ml salmon sperm DNA; 25 mM Na2HPO4, 150 mM NaCl, 0.1 mM EDTA, 2 mM MgCl2, 1 mM DTT, 10% glycerol, pH 7.0, 22 C, about 0.1 nM probe, 25 ug/ml sonicated salmon sperm DNA

For “AGGACGTTATCAGGGGTGGTGCGAGCCATGTCAAATTCCATTGATTCTTGTTCCCTGTCATTGAAGACCCTTTAGTCGCTACAGGGTCAAGCGCCTGCCGAAAATCTTTGGAGCGGCGCAAACATGACATGAACGTAATGTTTGCCCGCTCGCTAAACGCCTATAATCGCC (double strand) [czcI2 promoter]”, the binding [1] was “binds more weakly”.

For “ATGGGTTACGGGTTGTTCACGGCTTGCTGGAGAGTCTGATCGGTCGTTGCGCGACCTTGGAATGCAGTCTAGAGGGCGGGTCCCGACGCGAACATGACCCTTGAATGACATTGATGTCATTTGTCCGAGGCAATGCGATACGATTGCCGGACAGGGTGCCGACCGGACAATGAATTCGGCCTTGGCGACAAATCCACGCCAAACAAC (double strand) [prsQ2 promoter/operator]”, the binding [2] was “binds” and the Kd [1] was 1.6 µM.

For “ATTGGAGCGGCGAGTATAGAAATGCCGACATTTCGTTTCGATTGCGGCGAGATTACAGCCGCATCGTTCCGGGCGCGGGCAGGCAGAAAAGGAGGGCGCGAGAGAAGGGCGAGAGAAGGGCGAGGGAAGGGCGGGACTACCCCGCGCCTTGGGTGCGGGGCCTGTGTCGGGTCAATCGACCCAGTTCACCTT (double strand) [ompC-like promoter]”, the binding [1] was “binds more weakly”.

In the case of “GTGTCCTCGTCAAACCAATGCACCCGGGCCCCGTGCCCGGAAAACGCCGCAAGTGTACGCCGCGGTCCGAACATGACGCGGACATTACCGGAATGTAATTTTTGGGTCATTAGGTGGTTACCGCGCCCTGACTACTCTGTGCTCGCTGCGCCATTTTGCTGGCGCGATTTCACAATGAGAA (double strand) [copA2-copR2 intergenic region]”, the binding [2] is reported as “binds”, the Kd [1] is reported as 2.1 µM and the binding [3] is reported as “binds”. The binding [4] was “binds”.

For “GTTTTCATCCTCAGCTGCACGGGCTCACAGCTCAAACGATGCCGCCGATGATAACGGCGCAGGTTCGCCTATTGGATGACAAGACTGTAATCGTTTCGTCCCCGTTTGAAAGGGTGTTGCGTACATAGAATCGCCGCTAATTCTGGATGACCGGCGCCGACAGCGCCTGGAGTGAACCATGTGGATTGTGC (double strand) [agrR control region]”, the binding [2] was “binds”, the binding [5] was “binds” and the Kd [6] was 1.6 µM. The Kd [1] was 16.5 µM, the binding [7] was “binds more weakly” and the binding [3] was “binds”. The binding [4] was “binds”.

“TAGAACTGCCTGTGTTGAGCAGTTGCAGCATTGTACTGCCTCTAACGGTTGCAAAATGGCTATATCAAGATGACATTCGTGCAATGTTCGCCAATTCGTGGCAAAGCTCCGCTAGTGTCTCGGTCTATATCCAGAACCTCGAATAATGGGCCGGTACCAA (double strand) [czcL-czcR2 intergenic region]” was tested, and the Kd [1] was 26.5 µM.

For “TGAAGCCGATCCATGACATAGTCTCCCTGTTCACCGGTGAATTTTTACACGATCCGGGTGATTTATTGTTGAAAGCACAACCAATCATTGTGGACGGCGCTATTTATTCATATCAGGGAAATGCCTAATATCGCACCATCTGATGCCGCATTGCAGCACCGGTCCTGGGACCACCGGCATCCTTGAATGTGAAAGAGGATTCCATCATG (double strand) [prsQ1 promoter]”, the binding [1] was “no binding”.

agrR control region gave a Kd [8] of 1.6 µM and a Kd [9] of 16.5 µM.

copA2-copR2 intergenic region showed a Kd [9] of 2.1 µM.

Work on czcL-czcR2 intergenic region yielded a Kd [9] of 26.5 µM.

With prsQ2 promoter/operator the Kd [9] was 1.6 µM.
